Each block holds one molecule with its values, some of them ahead of it.
Legend:
Test in all cases: other fluorescence titration
[1] = target: recombinant RHOA^WT (human) (UniProt P61586)
[2] = target: recombinant RHOA^L57V (human) (UniProt P61586)
recombinant RHOA^L57V = recombinant RHOA^L57V (human, UniProt P61586 1-193, L57V)
recombinant RHOA^WT = recombinant RHOA^WT (human, UniProt P61586 1-193)
Sequence of recombinant RHOA^WT (P61586 whole entry): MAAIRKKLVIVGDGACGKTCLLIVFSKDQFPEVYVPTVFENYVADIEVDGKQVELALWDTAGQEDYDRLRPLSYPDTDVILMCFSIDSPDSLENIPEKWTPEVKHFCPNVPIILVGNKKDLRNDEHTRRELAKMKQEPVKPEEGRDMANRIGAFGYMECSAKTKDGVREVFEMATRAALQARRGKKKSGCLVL

Sequence of recombinant RHOA^WT (human) (P61586 whole entry): as above
Sequence of recombinant RHOA^L57V (P61586 whole entry L57V): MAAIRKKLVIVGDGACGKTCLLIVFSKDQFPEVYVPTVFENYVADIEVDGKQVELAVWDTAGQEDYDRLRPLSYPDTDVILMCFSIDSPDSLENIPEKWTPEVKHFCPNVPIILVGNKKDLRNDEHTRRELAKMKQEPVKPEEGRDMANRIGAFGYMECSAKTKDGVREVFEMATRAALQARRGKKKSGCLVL
Sequence of recombinant RHOA^L57V (human) (P61586 whole entry L57V): as above

- Kd [1]: 439 nM
- Kd [2]: 243 nM
Molecule: GST-ROCK1-RBD (domain or fragment)

- Kd (recombinant RHOA^L57V): 220 ± 10 nM
- Kd (recombinant RHOA^WT): 258 ± 15 nM
B1: GST-Rhotekin-RBD (domain or fragment, mouse, UniProt Q8C6B2-2 7-89, looked up)
chain: ILEDLNMLYIRQMALSLEDTELQRKLDHEIRMRDGACKLLAACSQREQALEATKSLLVCNSRILSYMGELQRRKEAQVLEKTG

From PMC10791543 (Science signaling, 2023)
